The target of this test is WT HCN1 (mHCN1) (mouse (mHCN1)) (UniProt O88704). The test is described as follows: cell-based or functional assay.
UniProt O88704, sequence (O88704 whole entry): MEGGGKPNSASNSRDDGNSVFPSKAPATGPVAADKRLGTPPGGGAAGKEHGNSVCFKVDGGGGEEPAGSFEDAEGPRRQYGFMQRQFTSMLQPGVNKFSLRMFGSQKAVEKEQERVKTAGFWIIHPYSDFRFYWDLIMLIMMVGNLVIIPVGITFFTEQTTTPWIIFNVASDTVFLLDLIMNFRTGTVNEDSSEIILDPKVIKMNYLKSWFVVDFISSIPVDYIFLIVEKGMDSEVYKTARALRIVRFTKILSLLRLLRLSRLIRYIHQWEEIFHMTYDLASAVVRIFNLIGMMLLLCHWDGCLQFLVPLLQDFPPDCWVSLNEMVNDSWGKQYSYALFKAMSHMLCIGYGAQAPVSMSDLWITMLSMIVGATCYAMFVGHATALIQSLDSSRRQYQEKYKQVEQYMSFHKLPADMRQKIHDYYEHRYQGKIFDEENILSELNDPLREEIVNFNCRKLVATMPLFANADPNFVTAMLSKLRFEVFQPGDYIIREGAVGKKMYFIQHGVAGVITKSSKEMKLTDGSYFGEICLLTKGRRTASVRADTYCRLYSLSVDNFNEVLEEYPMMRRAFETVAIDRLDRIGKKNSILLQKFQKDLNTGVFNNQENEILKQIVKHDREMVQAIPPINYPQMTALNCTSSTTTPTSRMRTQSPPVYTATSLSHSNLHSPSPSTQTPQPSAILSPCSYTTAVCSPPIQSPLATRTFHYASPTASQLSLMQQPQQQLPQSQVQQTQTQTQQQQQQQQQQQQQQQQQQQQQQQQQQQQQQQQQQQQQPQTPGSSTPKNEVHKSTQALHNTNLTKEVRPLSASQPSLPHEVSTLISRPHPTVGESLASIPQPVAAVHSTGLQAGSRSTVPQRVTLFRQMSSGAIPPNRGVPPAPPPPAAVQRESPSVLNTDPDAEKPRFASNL

For the substance “HCN1-AAA (mHCN1 with the triple mutation GYG365-367AAA) (from UniProt O88704 1-910)”, the current reduction, WTHCN1:HCN1-AAA cRNA ratio 1:1 (total 25 ng), Xenopus oocytes (% current reduction) came out at 91.7; the current reduction, WTHCN1:HCN1-AAA cRNA ratio 1:2 (total 25 ng), Xenopus oocytes (% current reduction) was 97.9; the current reduction, WTHCN1:HCN1-AAA cRNA ratio 2:1 (total 25 ng), Xenopus oocytes (% current reduction) was 78.7; the current reduction, WTHCN1:HCN1-AAA cRNA ratio 3:1 (total 25 ng), Xenopus oocytes (% current reduction) was determined as 68.3. Also, the current reduction, WTHCN1:HCN1-AAA cRNA ratio 4:1 (total 25 ng), Xenopus oocytes (% current reduction) is 55.2; the whole-cell current at -140 mV in Xenopus oocytes, co-injection of 50 nL WT HCN1 and 50 nL HCN1-AAA cRNA against WT HCN1 alone (current reduction) was 85.2%.
